According to US20120231000A1:

How the values were obtained:
[1] = target: humVEGF1-165 homodimer (recombinant full-length humanVEGF) (human) (UniProt P15692); assay: ELISA titer on coated humVEGF1-165, 5000 ng/mL
[2] = target: ratVEGF1-165 homodimer (recombinant full-length ratVEGF) (rat) (UniProt P16612); assay: ELISA on coated antigen
Sequence of ratVEGF1-165 homodimer (recombinant full-length ratVEGF) (rat) (P16612 27-165, form in doubt): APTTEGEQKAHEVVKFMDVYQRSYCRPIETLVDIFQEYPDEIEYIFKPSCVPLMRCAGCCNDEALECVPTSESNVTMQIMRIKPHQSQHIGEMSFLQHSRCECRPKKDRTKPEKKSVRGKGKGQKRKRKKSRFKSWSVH

Sequence of humVEGF1-165 homodimer (recombinant full-length humanVEGF) (human) (P15692 other isoform, or with tags, fused parts or gaps): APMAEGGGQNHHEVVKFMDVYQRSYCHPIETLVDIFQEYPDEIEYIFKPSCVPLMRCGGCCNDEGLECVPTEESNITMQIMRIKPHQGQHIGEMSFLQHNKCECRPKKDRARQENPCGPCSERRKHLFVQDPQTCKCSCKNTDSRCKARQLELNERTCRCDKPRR

Row | Titer (-10log dilution) [1] | ELISA signal at dilution 1/100 [2] | ELISA signal at dilution 1/300 [2] | ELISA signal at dilution 1/1000 [2] | titer endblood [2] [ng/mL] | Substance
1 | 4.2 |  |  |  |  | BioVision™ (control Ab) (antibody)
2 |  | 236 | 148 | 103 | < 1000 | Avastin™ (Bevacizumab) (antibody)
